The data set deals with MS2 coat protein. Put plainly: apparent KD of MS2 coat protein; designed switch direction (-1 OFF switch, 1 ON switch): -1; higher = weaker reporter binding. In short, it runs like this: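 Designed RNA switches were transcribed on Illumina chips by stalled E. coli RNA polymerase and titrated with SNAP-549-labelled MS2 coat protein from 0.7 or 1.5 nM, doubling to 3 µM. Step length ran from 0.8–1.5 h at the lowest concentration to 10–20 min at the highest. The apparent KD is the median over clusters for each design, from curve-fitted normalised cluster fluorescence.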

[1] abbreviates: Eterna round: R95, input ligand: microRNA oligo, concentration not stated.
Where [2] appears, read: Eterna round: R95, input ligand: FMN 200 uM.
Where [3] appears, read: Eterna round: R95, input ligand: none.
[4] abbreviates: input ligand: microRNA oligo, concentration not stated.

Regarding “AUAAUGUCAGGAUAUCAGUCGUACAGCUGCGGCUGUACGACUGAGAAGGGACAUGAGGAUCACCCAUGUGGUCA [E4/6-A3] (Eterna round: R97, puzzle: Exclusion 4)”, the “apparent KD of MS2 coat protein” value reads like this: (input ligand: FMN 200 uM) 20.2 nM; (input ligand: none) 236 nM.
On the same counts, the results for “AUAAUGUCAGGAUAUCGAACUUACUACUUCGGUAGUAAGUUCGAGAAGGGACAUGAGGAUCACCCAUGUGAUCA [E4/1-A4] (Eterna round: R97, puzzle: Exclusion 4)” are 41.8 nM and 109 nM.
Regarding “AUAAUGUCAGGAUAUCGAGACUACUGCCUCGGCAGUAGUCUCGAGAAGGGACAUGAGGAUCACCCAUGUGAUCA [E4/1-A2] (Eterna round: R97, puzzle: Exclusion 4)”, the “apparent KD of MS2 coat protein” value was found to be 831 nM (input ligand: FMN 200 uM) and 45.2 nM (input ligand: none).
For the sequence “AUACCACGAGGAUAUCGUCUAUAAUACAUGAGGAUCACCCAUGUUAUAUCUGUAAUGUUUCGAGAAGGCGUUUGUU [JR_E5_Sub085] (puzzle: Exclusion 5)”, the “apparent KD of MS2 coat protein” value under setting [1] turned out to be 21.3 nM.
For the sequence “AUACCACGAGGAUAUCGUCUAUUUCACAUGAGGAUCACCCAUGUUAUCCUUGUUUCGUUUCGAGAAGGCGUGUUUU [JR_E5_Sub076] (puzzle: Exclusion 5)”, under setting [1], the “apparent KD of MS2 coat protein” value amounted to 43.8 nM.
For the sequence “AUACUUGCGAAGGAUAUGUAUCAAAGGAACGAAACAGAAGGUUGAACAUGAGGAUCACCCAUGUGUUCCUCGGA [Eternabot (Original) Solution 40] (Eterna round: R97, puzzle: Exclusion 6)”, the “apparent KD of MS2 coat protein” value is, setting by setting: (input ligand: FMN 200 uM) 272 nM; (input ligand: none) 235 nM.
For “AUAGUAGAAGUGAGGAUAUCGUAGAUUUUUUGAAACGAGAAGGCACAUGAGGAUCACCCAUGUAAGAUGGAGGU [JR_BMOE4_Sub052] (puzzle: Brourd's mod of Exclusion 4)”, the “apparent KD of MS2 coat protein” value turned out to be 236 nM under setting [2], 219 nM under setting [1] and 319 nM under setting [3].
Turning to “AUAUAGAUAGUCAGGAUAUUCUAGUGAUAACAGUAGGAGAAGGGACAUGAGGAUCACCCAUGUAGAUAGUGCAC [Brourd's EX4 #15] (Eterna round: R97, puzzle: Brourd's mod of Exclusion 4)”, the “apparent KD of MS2 coat protein” value is, setting by setting: (input ligand: FMN 200 uM) 42.9 nM; (input ligand: none) 27 nM.
For the sequence “AUAUUAAUAUAGGAUAUCGAAUUUAUAAAUUAUCGAGAAGGAUAAACAUGAGGAUCACCCAUGUGGUAUCAUGG [Mat - Exclusion 6 - JL Mod - D42] (puzzle: Exclusion 6)”, the “apparent KD of MS2 coat protein” value is, setting by setting: under setting [2], 239 nM; under setting [1], 222 nM; under setting [3], 346 nM.
As for “AUAUUGUGAGGAUAUGAACUUAGUAACGAAAGAUACUAAGUUCAGAAGGCACAUGAGGAUCACCCAUGUUUCUC [Long static hairpin v11] (Eterna round: R97, puzzle: Exclusion 4)”, the “apparent KD of MS2 coat protein” value stood at 596 nM (input ligand: FMN 200 uM) and 68.1 nM (input ligand: none).
As to “AUAUUGUGAGGAUAUGAACUUAGUAUCGAAAGAAACUAAGUUCAGAAGGCACAUGAGGAUCACCCAUGUUUCUC [Long static hairpin v10] (Eterna round: R97, puzzle: Exclusion 4)”, the “apparent KD of MS2 coat protein” value runs as follows: (input ligand: FMN 200 uM) 566 nM; (input ligand: none) 63.2 nM.
The corresponding values for “AUAUUUAAUGAGGAUAUCGUUGUAGGUAUAUAGCGAGAAGGCAUUACAUGAGGAUCACCCAUGUAGUGUGGGUU [JR_Ex6_Sub021] (Eterna round: R97, puzzle: Exclusion 6)” are 78.7 nM and 23.7 nM.
Turning to “AUCAGCUCGUCAGGAUAUAUAUACAUGAGGAUCACCCAUGUAAGAUCAGGCUUCGGCCAAUGUAUAUAGAAGGGACGAGCUGAU [ENG2/11-B3] (Eterna round: R96, puzzle: Exclusion NG 2)”, the “apparent KD of MS2 coat protein” value is, setting by setting: (input ligand: FMN 200 uM) 1550 nM; under setting [4], 371 nM; (input ligand: none) 771 nM.
Turning to “AUCAGCUCGUCAGGAUAUAUUAACAUGAGGAUCACCCAUGUAAGAUCAGGCUUCGGCCAAUGUUAAUAGAAGGGACGAGCUGAU [ENG2/12-B2] (Eterna round: R96, puzzle: Exclusion NG 2)”, the “apparent KD of MS2 coat protein” value runs as follows: (input ligand: FMN 200 uM) 710 nM; under setting [4], 29 nM; (input ligand: none) 133 nM.
On to “AUCAGCUCGUGAGGAUAUACAUGAUAGAUCGAUUAAUUAAUUAAUUUAACAUGAGGAUCACCCAUGUAGAAGGCACGAGCUGAU [ENG2/1-A3] (Eterna round: R96, puzzle: Exclusion NG 2)”, for which the “apparent KD of MS2 coat protein” value under setting [4] is 30 nM.
As to “AUCAUAUAACAAGCUUUUUACAUGAGGAUCACCCAUGUGGUUUUUAGUCUUAUCCCGGGCCCGAUAUCGGGCCCGGG [-33.4, -54.7, A 22%] (Eterna round: R97, puzzle: Sensor, turn-off variant 1)”, the “apparent KD of MS2 coat protein” value runs as follows: (input ligand: FMN 200 uM) 22.8 nM; (input ligand: none) 24.2 nM.
Consider “AUCAUGUCAGGAUAUGUGAUAUGGAUCUUCGGAUCAAGUUCACAGAAGGGACAUGAGGAUCACCCAUGUCGAAC [Ex4-3: 30] (puzzle: Exclusion 4)”, for which, under setting [1], the “apparent KD of MS2 coat protein” value was 40.1 nM.
Regarding “AUCAUGUUAGGAUAUUACGACGCAGCGGGUAGCCCGUAAAGUAAGAAGGAACAUGAGGAUCACCCAUGUUCAAA [EX4 B.22] (Eterna round: R97, puzzle: Exclusion 4)”, the “apparent KD of MS2 coat protein” value is, setting by setting: (input ligand: FMN 200 uM) 32.8 nM; (input ligand: none) 19.6 nM.
On the same counts, the results for “AUCCAACAUGAGGAUCACCCAUGUCAGGAUAUACCCAUCUCCACCUAAUCGGUGGUGGGUAGAAGGGAUAUGUC [EX1 B.10] (Eterna round: R97, puzzle: Exclusion 1)” are 22.6 nM and 18.9 nM.
For “AUCCAGCGAGGAUAUACUUUGUUUUUUUCGUUUUGUCUCGAACAUGAGGAUCACCCAUGUAGAAGGUGCUUCAC [JR_Ex2_Sub005] (Eterna round: R97, puzzle: Exclusion 2)”, the “apparent KD of MS2 coat protein” value (input ligand: FMN 200 uM) stood at 60.8 nM and the “apparent KD of MS2 coat protein” value (input ligand: none) worked out at 69.7 nM.
With “AUCCGUAGGCGCACCUCACACAUGAGGAUCACCCAUGUGCCCUACAAUCGCAAGCUGUGCUCGUUGCUGGUCCCUAC [Eternabot (L1) Solution 16] (Eterna round: R97, puzzle: Sensor, turn-off variant 1)”, the “apparent KD of MS2 coat protein” value was 45.3 nM (input ligand: FMN 200 uM) and 48.5 nM (input ligand: none).
“AUCCUGUCAGGAUAUCUAGUUAAAUACAUGAGGAUCACCCAUGUCACUGGGCCGUCCUUAAGAGAAGGGACAGGCG [Edabe] (puzzle: Exclusion 5)”: the “apparent KD of MS2 coat protein” value under setting [2] was found to be 169 nM, the “apparent KD of MS2 coat protein” value under setting [1] was determined as 34.5 nM and the “apparent KD of MS2 coat protein” value under setting [3] was determined as 39.7 nM.
With “AUCCUUAACAAGGAUAUCGGGCGGGAAAUUGUUUGAGAAGGUGUAACAUGAGGAUCACCCAUGUAAAAUAUGAA [-14.9, -13.5 kcal, A 36%] (Eterna round: R97, puzzle: Exclusion 6)”, the “apparent KD of MS2 coat protein” value runs as follows: (input ligand: FMN 200 uM) 21.7 nM; (input ligand: none) 31.2 nM.
“AUGAGGUUAGGAUAUACAUGAGGAUCACCCAUGUUGAAAGGAUAGAUAAGAAAAGAUAGUAGAAGGAACAAAGA [JR_Exclu3_Sub052] (puzzle: Exclusion 3)”: the “apparent KD of MS2 coat protein” value is, setting by setting: under setting [2], 34.4 nM; under setting [1], 34.9 nM; under setting [3], 39.2 nM.
On to “AUGCUCCGUGUAGGAUAUCGCCGUACUAUUCGGCGAGAAGGACAUGAGGAUCACCCAUGUAUGUUAUUAUCACGUGUGGCGCGC [Design 48] (Eterna round: R96, puzzle: Exclusion NG 1)”, for which the “apparent KD of MS2 coat protein” value turned out to be 57 nM (input ligand: FMN 200 uM), 14.5 nM under setting [4] and 18.9 nM (input ligand: none).
Take “AUGCUCCGUGUAGGAUAUCGCCGUAUUAUUCGGCGAGAAGGACAUGAGGAUCACCCAUGUAUGUUAUUAUCACGUGUGGCGCGC [Design 47] (Eterna round: R96, puzzle: Exclusion NG 1)”: the “apparent KD of MS2 coat protein” value is, setting by setting: (input ligand: FMN 200 uM) 41.8 nM; under setting [4], 13.6 nM; (input ligand: none) 21.8 nM.
Consider “AUGGGUACUUUCGGAGCGACAUGAGGAUCACCCAUGUAUAUUGAGGAUAUCCACUGCUAAGGACGGGAGAAGGCAGUGUACUGU [Ex NG3 #82] (Eterna round: R96, puzzle: Exclusion NG 3)”, for which the “apparent KD of MS2 coat protein” value (input ligand: FMN 200 uM) was 73.3 nM, the “apparent KD of MS2 coat protein” value under setting [4] is 42.9 nM and the “apparent KD of MS2 coat protein” value (input ligand: none) turned out to be 54.2 nM.
Consider “AUGGUACAUGAGGAUCACCCAUGUUAGGAUAUCGCGUGUUCUAAAACUAAGAGACACACGAGAAGGGACGACAU (puzzle: Exclusion 1)”, for which the “apparent KD of MS2 coat protein” value by setting is: under setting [2], 51.5 nM; under setting [1], 67.8 nM; under setting [3], 71.4 nM.
In the case of “AUGUCGGCAGGAUAUACAUGAGGAUCACCCAUGUAAAUUUUUCGUUUAACUUGAAUGUGUAGAAGGGCCAUGAA [Ex3 #68] (Eterna round: R97, puzzle: Exclusion 3)”, the “apparent KD of MS2 coat protein” value turned out to be 30.9 nM (input ligand: FMN 200 uM) and 33 nM (input ligand: none).
For “AUUAAAACAUAGGAUAUCGAAUUUAUCAUUUAACGAGAAGGAUGAACAUGAGGAUCACCCAUGUGGUAUCAUGG [Mat - Exclusion 6 - JL Mod - D6] (puzzle: Exclusion 6)”, under setting [1], the “apparent KD of MS2 coat protein” value is 165 nM.
With “AUUAUACAUGUAGGAUAUCUGCACGUGUAGUGCAGAGAAGGACAUGAGGAUCACCCAUGUAGAUCAAUAAUAAUUAAUUUAAUU [ENG1/6-B3] (Eterna round: R96, puzzle: Exclusion NG 1)”, the “apparent KD of MS2 coat protein” value came to 184 nM (input ligand: FMN 200 uM), 96.8 nM under setting [4] and 104 nM (input ligand: none).
As to “AUUAUAUAGCAAGGAUAUAGAAUAUUAUUUUAACAUGAGGAUCACCCAUGUAACCUUAUGUGUAGCUAGAAGGUGCAUUUAUUA [Title] (Eterna round: R96, puzzle: Exclusion NG 2)”, the “apparent KD of MS2 coat protein” value under setting [4] turned out to be 64.1 nM.

Source of the values: the supplement of paper PMC9170038.
